{
  "source": "paper PMC7308479",
  "target": "GST",
  "assay": "AUC; sedimentation velocity, 40 μM GST, 25 mM HEPES pH 7.4, 500 mM NaCl, 4°C",
  "data": [
    {"substance": "GST", "values": [
      {"measurement": "stoichiometry N", "value": 2}
    ]}
  ]
}
